Source: article PMC11343202

Target: GFP with a c-Myc nuclear localization signal at the C-terminus (GFP-NLS)
Assay: label-free LC MS/MS

With “AAV-DJ capsid incorporating VP1 with a GFPnb inserted at position H631, supplemented with wild type VP2/VP3 (complex)” the GFP:capsid (GFP-NLS per capsid) was 1 to 3.
